Where two headings read alike, the source gives them in different places.
Key:
[1] = biological target: T1, Plasminogen-depleted human fibrinogen (human, UniProt P02671-2 36-644; P02675 45-491; P02679 27-453); assay: ELISA
[2] = biological target: Fibrin made from surface-adsorbed or chip-immobilized human fibrinogen by thrombin (most probably monomeric) (human) (UniProt P02679); assay: ELISA
[3] = biological target: Recombinant Aα221–610 fragment (human fibrinogen αC region) (human); assay: ELISA
[4] = biological target: Recombinant Aα504–610 fragment (C-terminal sub-domain of the αC-domain) (human); assay: ELISA
[5] = biological target: Fibrin made from surface-adsorbed or chip-immobilized human fibrinogen by thrombin (most probably monomeric) (human) (UniProt P02679); assay: ELISA; remark: listed apart in the source
[6] = biological target: Recombinant Aα392–610 fragment (human fibrinogen αC-domain) (human); assay: ELISA
[7] = biological target: Fibrin made from surface-adsorbed or chip-immobilized human fibrinogen by thrombin (most probably monomeric) (human) (UniProt P02679); assay: ELISA; remark: listed apart in the source
[8] = biological target: Recombinant Aα392–610 fragment (human fibrinogen αC-domain) (human); assay: ELISA; remark: listed apart in the source
[9] = biological target: Recombinant Aα504–610 fragment (C-terminal sub-domain of the αC-domain) (human); assay: ELISA; remark: listed apart in the source
[10] = biological target: T1, Plasminogen-depleted human fibrinogen; assay: ELISA; remark: listed apart in the source
[11] = biological target: Fibrin made from surface-adsorbed or chip-immobilized human fibrinogen by thrombin (most probably monomeric) (human) (UniProt P02679); assay: ELISA; remark: listed apart in the source
[12] = biological target: Recombinant Aα392–610 fragment (human fibrinogen αC-domain) (human); assay: ELISA; remark: listed apart in the source
[13] = biological target: Polymeric fibrin (cross-linked fibrin oligomers/polymers prepared on the sensor chip) (human) (UniProt P02679); assay: SPR
[14] = biological target: Polymeric fibrin (cross-linked fibrin oligomers/polymers prepared on the sensor chip) (human) (UniProt P02679); assay: SPR; remark: listed apart in the source
[15] = biological target: Fibrinogen D1 fragment (human); assay: ELISA
[16] = biological target: Fibrinogen D1 fragment (human); assay: ELISA; remark: listed apart in the source
[17] = biological target: T2, Human α2-antiplasmin, Asn-α2-AP form (human, UniProt P08697 40-491); assay: SPR
T2 sequence (looked up): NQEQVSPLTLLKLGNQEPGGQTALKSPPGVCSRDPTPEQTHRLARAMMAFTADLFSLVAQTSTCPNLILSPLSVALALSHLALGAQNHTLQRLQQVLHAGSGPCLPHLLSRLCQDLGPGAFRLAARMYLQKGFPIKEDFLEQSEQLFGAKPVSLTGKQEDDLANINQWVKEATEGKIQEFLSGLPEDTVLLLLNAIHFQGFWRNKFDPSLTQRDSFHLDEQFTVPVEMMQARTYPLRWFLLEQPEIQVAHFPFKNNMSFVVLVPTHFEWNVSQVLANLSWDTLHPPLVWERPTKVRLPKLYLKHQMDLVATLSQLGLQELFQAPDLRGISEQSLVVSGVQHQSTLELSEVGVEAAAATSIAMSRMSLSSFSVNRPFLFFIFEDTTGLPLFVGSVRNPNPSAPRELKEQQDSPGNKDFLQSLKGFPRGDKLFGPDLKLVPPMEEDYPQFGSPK

B1: Biotinylated human α2-antiplasmin (Asn-α2-AP form) (natural protein, UniProt P08697 40-491, looked up)
chain: NQEQVSPLTLLKLGNQEPGGQTALKSPPGVCSRDPTPEQTHRLARAMMAFTADLFSLVAQTSTCPNLILSPLSVALALSHLALGAQNHTLQRLQQVLHAGSGPCLPHLLSRLCQDLGPGAFRLAARMYLQKGFPIKEDFLEQSEQLFGAKPVSLTGKQEDDLANINQWVKEATEGKIQEFLSGLPEDTVLLLLNAIHFQGFWRNKFDPSLTQRDSFHLDEQFTVPVEMMQARTYPLRWFLLEQPEIQVAHFPFKNNMSFVVLVPTHFEWNVSQVLANLSWDTLHPPLVWERPTKVRLPKLYLKHQMDLVATLSQLGLQELFQAPDLRGISEQSLVVSGVQHQSTLELSEVGVEAAAATSIAMSRMSLSSFSVNRPFLFFIFEDTTGLPLFVGSVRNPNPSAPRELKEQQDSPGNKDFLQSLKGFPRGDKLFGPDLKLVPPMEEDYPQFGSPK
modifications: biotin (EZ-Link Sulfo-NHS-Biotinylation Kit), sites not stated
[1]
  Kd: 102 nM
[2]
  Kd: 102 nM
[3]
  Kd: 131 nM
[4]
  Kd: 123 nM
[5]
  Kd: 25 nM
[6]
  Kd: 111 nM
[7]
  Kd: 101 nM
[8]
  Kd: 141 nM
[9]
  Kd: 130 nM
[10]
  Kd: 179 nM
[11]
  Kd: 109 nM
[12]
  Kd: 157 nM

B2: Human α2-antiplasmin, Asn-α2-AP form (natural protein)
chain: NQEQVSPLTLLKLGNQEPGGQTALKSPPGVCSRDPTPEQTHRLARAMMAFTADLFSLVAQTSTCPNLILSPLSVALALSHLALGAQNHTLQRLQQVLHAGSGPCLPHLLSRLCQDLGPGAFRLAARMYLQKGFPIKEDFLEQSEQLFGAKPVSLTGKQEDDLANINQWVKEATEGKIQEFLSGLPEDTVLLLLNAIHFQGFWRNKFDPSLTQRDSFHLDEQFTVPVEMMQARTYPLRWFLLEQPEIQVAHFPFKNNMSFVVLVPTHFEWNVSQVLANLSWDTLHPPLVWERPTKVRLPKLYLKHQMDLVATLSQLGLQELFQAPDLRGISEQSLVVSGVQHQSTLELSEVGVEAAAATSIAMSRMSLSSFSVNRPFLFFIFEDTTGLPLFVGSVRNPNPSAPRELKEQQDSPGNKDFLQSLKGFPRGDKLFGPDLKLVPPMEEDYPQFGSPK
[13]
  Kd: 68 nM
[14]
  Kd: 45 nM

B3: Biotinylated human α2-antiplasmin (Asn-α2-AP form), P08697 40-491 (natural protein)
chain: NQEQVSPLTLLKLGNQEPGGQTALKSPPGVCSRDPTPEQTHRLARAMMAFTADLFSLVAQTSTCPNLILSPLSVALALSHLALGAQNHTLQRLQQVLHAGSGPCLPHLLSRLCQDLGPGAFRLAARMYLQKGFPIKEDFLEQSEQLFGAKPVSLTGKQEDDLANINQWVKEATEGKIQEFLSGLPEDTVLLLLNAIHFQGFWRNKFDPSLTQRDSFHLDEQFTVPVEMMQARTYPLRWFLLEQPEIQVAHFPFKNNMSFVVLVPTHFEWNVSQVLANLSWDTLHPPLVWERPTKVRLPKLYLKHQMDLVATLSQLGLQELFQAPDLRGISEQSLVVSGVQHQSTLELSEVGVEAAAATSIAMSRMSLSSFSVNRPFLFFIFEDTTGLPLFVGSVRNPNPSAPRELKEQQDSPGNKDFLQSLKGFPRGDKLFGPDLKLVPPMEEDYPQFGSPK
modifications: here or on the partner: biotin (EZ-Link Sulfo-NHS-Biotinylation Kit), sites not stated
[15]
  Kd: 197 nM
[16]
  Kd: 165 nM

B4: Fibrin-derived D-D:E complex (complex)
chain 1: VSEDLRSRIEVLKRKVIEKVQHIQLLQKNVRAQLVDMKRLEVDIDIKIRSCRGSCSRALAREVDLKDYEDQQKQLEQVIAKDLLPSR
chain 2: DNENVVNEYSSELEKHQLYIDETVNSNIPTNLRVLRSILENLRSKIQKLESDVSAQMEYCRTPCTVSCNIPVVSGKECEEIIRKGGETSEMYLIQPDSSVKPYRVYCDMNTENGGWTVIQNRQDGSVDFGRKWDPYKQGFGNVATNTDGKNYCGLPGEYWLGNDKISQLTRMGPTELLIEMEDWKGDKVKAHYGGFTVQNEANKYQISVNKYRGTAGNALMDGASQLMGENRTMTIHNGMFFSTYDRDNDGWLTSDPRKQCSKEDGGGWWYNRCHAANPNGRYYWGGQYTWDMAKHGTDDGVVWMNWKGSWYSMRKMSMKIRPFFPQQ
chain 3: KMLEEIMKYEASILTHDSSIRYLQEIYNSNNQKIVNLKEKVAQLEAQCQEPCKDTVQIHDITGKDCQDIANKGAKQSGLYFIKPLKANQQFLVYCEIDGSGNGWTVFQKRLDGSVDFKKNWIQYKEGFGHLSPTGTTEFWLGNEKIHLISTQSAIPYALRVELEDWNGRTSTADYAMFKVGPEADKYRLTYAYFAGGDAGDAFDGFDFGDDPSDKFFTSHNGMQFSTWDNDNDKFEGNCAEQDGSGWWMNKCHAGHLNGVYYQGGTYSKASTPNGYDNGIIWATWKTRWYSMKKTTMKIIPFNRLTIGEGQQHHLGGAK
chain 4: GPRVVERHQSACKDSDWPFCSDEDWNYKCPSGCRMKGLIDEVNQDFTNRINKLKNSLFEYQK
chain 5: GHRPLDKKREEAPSLRPAPPPISGGGYRARPAKAAATQKKVERKAPDAGGCLHADPDLGVLCPTGCQLQEALLQQERPIRNSVDELNNNVEAVSQTSSSSFQYMYLLK
chain 6: YVATRDNCCILDERFGSYCPTTCGIADFLSTYQTKVDKDLQSLEDILHQVENKTSEVKQLIK
modifications: covalent γ-γ cross-linking between the D regions
[17]
  Kd: 1400 ± 400 nM

From PMC2932838 (Biochemistry, 2010)
